Results on 2 compounds are retold here after paper PMC8292354, “Molecular insights into the endoperoxide formation by Fe(II)/α-KG-dependent oxygenase NvfI” (Nature Communications, 2021).

Data set [1] concerns COC(=O)[C@@H]1C(=O)C(C)=C2O[C@@]3(C[C@]2(C)[C@H]1C)[C@@H](C)CC[C@H]1C(C)(C)OC(=O)CC[C@@]13C. The data set is described as follows: purified protein. As to conditions: 50 mM HEPES pH 7.5, 1 μM FeSO4, 500 μM ascorbate, 500 μM α-KG, 30 °C, 2 min, 0.1 μM enzyme.
For another data set, the target named is T1, NvfI (Aspergillus novofumigatus, UniProt A0A2I1BSX0).
T1 construct: recombinant from pET28a in E. coli Rosetta 2(DE3) pLysS, Ni-NTA purified, MonoQ and Superdex 200; monomer in solution, apparent 34 kDa
T1 sequence (A0A2I1BSX0 whole entry): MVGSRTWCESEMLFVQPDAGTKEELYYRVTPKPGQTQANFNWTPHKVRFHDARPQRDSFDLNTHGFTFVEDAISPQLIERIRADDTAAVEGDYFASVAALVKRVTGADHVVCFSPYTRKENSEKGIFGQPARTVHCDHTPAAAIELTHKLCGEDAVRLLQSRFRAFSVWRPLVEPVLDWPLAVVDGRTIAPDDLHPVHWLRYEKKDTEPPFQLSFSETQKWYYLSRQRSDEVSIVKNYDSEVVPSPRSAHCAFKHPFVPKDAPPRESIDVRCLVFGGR
The data set is described as follows: X-ray crystal structure, […] Å. The format is binding. As to conditions: bidentate Fe ligand; binary (state I, monomer B) and ternary complex with asnovolin A (state III, monomer A).

The Km is the substrate concentration at which the rate is half of its maximum. Usually kcat stands for the number of substrate molecules converted per active site and unit of time at saturation. In the case of “NvfI (Aspergillus novofumigatus IBT 16806)”, in data set [1], the Michaelis constant (Km) turned out to be 25.9 ± 7.2 µM and the kcat amounted to 0.29 ± 0.04 s⁻¹.

Turning to `O=C(O)CCC(=O)C(=O)O` [α-KG], the “X-ray crystal structure, 1.9 Å” value at NvfI was “octahedral iron-center is coordinated by the bidentate α-KG and a water molecule”.
